We go through one molecule from patent US20230391872A1 (ANAPTYSBIO, published 2023).

The target in experiment [1] is T1, cynomolgus monkey BTLA on cells (stably transfected 293c18 clone 1G5); cynomolgus peripheral blood T and B … (cynomolgus monkey, UniProt A0A2K5W7M7 31-289).
T1 construct: whole, on cells; also called cynomolgus monkey BTLA 293c18 cells
T1 sequence: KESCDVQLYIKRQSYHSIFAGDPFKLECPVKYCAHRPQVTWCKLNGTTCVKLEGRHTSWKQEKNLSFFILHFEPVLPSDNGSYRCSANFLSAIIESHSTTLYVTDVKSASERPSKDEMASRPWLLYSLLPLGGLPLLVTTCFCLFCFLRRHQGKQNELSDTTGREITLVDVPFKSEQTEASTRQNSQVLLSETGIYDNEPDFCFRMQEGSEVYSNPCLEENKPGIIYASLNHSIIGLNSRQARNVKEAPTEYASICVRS
The experiment can be described thus: flow cytometry, AF647-labeled 6G3 IgG4 on cynomolgus monkey peripheral blood CD20+ B cells. As to the method: Blood was then aliquoted into wells and incubated with the indicated concentrations of 6G3-AF647 (APE13766.02), or APC-Mouse Anti-Human CD272 (BTLA) reference antibody (clone J168-540; BD Biosciences) for minutes at room temperature, in the dark. Following incubation, red blood cells were lysed for minutes by addition of 2.0 ml diluted BD Pharm Lyse lysing solution (BD Biosciences), samples centrifuged at 200×g for 5 minutes, washed in FACS Buffer [Dulbecco's PBS, no calcium, no magnesium (Gibco/ThermoFisher Scientific), 25 mM HEPES, pH 7.2, 0.1% BSA, sodium azide] and fixed in 4% paraformaldehyde (200 μl/sample) for 10 minutes at room temperature. Samples were washed twice in FACS Buffer and analyzed for fluorescence on a NovoCyte Quanteon flow cytometer (ACEA Biosciences, Inc.). Data were analyzed using NovoExpress Software (ACEA Biosciences, Inc.). Mean fluorescence intensity (MFI) values were graphed and fit with nonlinear regression analyses in GraphPad Prism (GraphPad Software, Inc.). MFI values for each anti-BTLA antibody on total CD3+cells are shown in FIG. 5A; MFI values for each anti-BTLA antibody on total CD20+cells are shown in FIG. 5B. […] Binding of each anti-BTLA antibody to CD3⁻ cells in FIG. 5C and FIG. 5D (green cells in the bottom quadrants of each panel) reflects the binding to CD20⁺ B cells. […]
For orientation: A flow cytometer gives signals particle by particle.

Experiment [2] addresses T1, cynomolgus monkey BTLA on cells (stably …). Briefly: flow cytometry (MFI) on 293c18 cells stably expressing cynomolgus monkey BTLA, goat anti-human kappa-PE detection, four-parameter fit [right panel (Cy BTLA 293c18 cells), EC50 box]. As for the experimental part: 293c18 cell clone 1E4 stably expressing human BTLA construct or clone 1G5 stably expressing cynomolgus monkey BTLA were harvested with Accutase solution (Millipore Sigma/Sigma-Aldrich) and washed once with Phosphate-Buffered Saline, 1% BSA. 293c18 cynomolgus monkey BTLA cells were loaded with the lipophilic carbocyanine dye, DiD (2 μM, 1,1′-dioctadecyl-3,3,3′,3′-tetramenthylindodicarbocyanine; ThermoFisher Scientific) by rocking gently for 10 minutes at room temperature. DiD-stained cells were washed in PBS, 1% BSA and equal amounts of human BTLA 293c18 cells and cynomolgus monkey BTLA 293c18-DiD-stained cells were mixed. Cells (2×10⁵ total cells/sample) were incubated with the indicated concentrations of purified 6G3 IgG4 (two production lots, APE10840.03 and APE10840.04 (H Chain SEQ ID NO: 144, L Chain SEQ ID NO: 174)) or human IgG4 isotype control antibody specific for hen egg lysozyme with gentle shaking for 10 minutes at 4° C. in FACS buffer (PBS, 1% BSA, 0.02% sodium azide). […] Cells were washed and resuspended in FACS buffer and analyzed for fluorescence on a BD FACSArray (BD Biosciences). DiD stained cells expressing cynomolgus monkey BTLA (FIG. 3) were analyzed for median fluorescence intensity (MFI) separately from cells expressing human BTLA (FIG. 3). […]

What is called EC50 is the concentration needed to bring the measured effect to its halfway point.

B1: 6G3 IgG4 anti-BTLA antibody (APE10840 / APE12839 / APE13308) (antibody, V domains shown)
VH: QVQLVQSGAEVKKPGSSVKVSCKASGYVFSTSWMNWVRQAPGQGLEWMGRIYPGDADTNYVGKFKGRVTITADKSTTTAYMELSSLRSEDTAVYFCAKSGTFNFGNYRWYFDVWGKGTTVTVSS
VL: AIQLTQSPSSLSASVGDRVTITCRVSENIYSHLAWYQQKPGKAPKLLIYAATNLALGVPSRFSGSGSGTDYTLTISSLQPEDFATYYCQLFWGPPLTFGGGTKVEIKR
notes: Humanized antibody from a mouse hybridoma, tested as human IgG4 (detected with anti-human kappa); Some assays used labelled lots (DyLight 650, AF647, biotin, DyL488); also called 6G3 antibody; APE10840.03
As to B1, the EC50 in experiment [1] is approximately 1.4 nM; in experiment [2], 2.3 nM.
